Tests used:
[1] = molecular target: Jurkat cell 105 kD lactoferrin receptor (human); test: Scatchard analysis, Jurkat cells cultured 24 h with 30 mM sodium chlorate
[2] = molecular target: Jurkat cell 105 kD lactoferrin receptor (human); test: Scatchard analysis, 125I-labelled protein on whole Jurkat cells
[3] = molecular target: HT-29 cells (human colon carcinoma cell line); test: Scatchard analysis, 125I-labelled lactoferrin on HT-29 cells; High affinity (nM)
[4] = molecular target: Jurkat cell 105 kD lactoferrin receptor (human); test: Scatchard analysis, 125I-labelled protein on whole Jurkat cells (species comparison)
[5] = molecular target: HT-29 cells (human colon carcinoma cell line); test: Scatchard analysis, 125I-labelled lactoferrin on HT-29 cells; column Total affinity (µM); high affinity binding lost (--); one experiment
human lysozyme (human) [6] = molecular target: human lysozyme (human) (UniProt P61626); test: solid-phase ligand binding ELISA on hLZ-coated plates
human lysozyme (human) [7] = molecular target: human lysozyme (human) (UniProt P61626); test: solid-phase ligand binding ELISA on hLZ-coated plates; percent of the response with natural hLF
[8] = molecular target: HT-29 cells (human colon carcinoma cell line); test: Scatchard analysis, 125I-labelled lactoferrin on HT-29 cells; High affinity (nM); the cell wraps into r15 (8^a))
[9] = molecular target: HT-29 cells (human colon carcinoma cell line); test: Scatchard analysis, 125I-labelled lactoferrin on HT-29 cells; column Total affinity (µM); high affinity binding lost (--)
[10] = molecular target: Jurkat cell 105 kD lactoferrin receptor (human); test: Scatchard analysis, 125I-hLf on Jurkat cells cultured 24 h with 30 mM sodium chlorate
[11] = molecular target: Jurkat cell 105 kD lactoferrin receptor (human); test: Scatchard analysis, 125I-hLf on Jurkat cells cultured without sodium chlorate

Sequence of bovine lactoferrin (P24627 20-708 limits assumed): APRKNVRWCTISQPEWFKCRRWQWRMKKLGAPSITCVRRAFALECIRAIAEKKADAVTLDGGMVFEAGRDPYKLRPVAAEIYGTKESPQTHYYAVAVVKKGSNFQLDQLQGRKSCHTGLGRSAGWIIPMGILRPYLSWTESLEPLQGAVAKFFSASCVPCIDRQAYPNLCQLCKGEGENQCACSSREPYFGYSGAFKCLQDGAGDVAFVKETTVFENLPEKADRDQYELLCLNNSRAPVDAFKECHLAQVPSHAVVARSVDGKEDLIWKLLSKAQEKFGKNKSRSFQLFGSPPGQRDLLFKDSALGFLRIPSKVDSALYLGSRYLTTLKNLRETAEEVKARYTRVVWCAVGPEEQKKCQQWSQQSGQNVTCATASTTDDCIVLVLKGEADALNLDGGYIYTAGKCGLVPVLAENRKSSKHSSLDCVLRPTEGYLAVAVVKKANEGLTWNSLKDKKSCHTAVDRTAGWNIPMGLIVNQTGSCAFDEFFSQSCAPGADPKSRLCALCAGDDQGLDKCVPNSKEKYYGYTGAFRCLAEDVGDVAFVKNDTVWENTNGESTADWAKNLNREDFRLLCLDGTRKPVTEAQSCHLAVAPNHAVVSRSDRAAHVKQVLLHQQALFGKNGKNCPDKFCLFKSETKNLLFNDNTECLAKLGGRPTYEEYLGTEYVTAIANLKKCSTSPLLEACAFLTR

| Substance | Kd [2] [nM] | Kd [3] [nM] | Kd [4] [nM] | further results |
| --- | --- | --- | --- | --- |
| rhLF^-5N (ligand) | 12.4 |  |  | Kd [1]: 27.9 nM |
| transgenic hLF isolated from milk of a transgenic bovine (from UniProt P02788) (ligand) |  | 88 |  |  |
| murine lactoferrin (from UniProt P08071) (ligand) |  |  | 31 |  |
| hLF^-4N (from UniProt P02788) (ligand) | 41 |  |  | Kd [5]: 700 nM |
| hLF^-2N (from UniProt P02788) (ligand) | 65 |  |  | fold lower affinity than N-terminally intact hLF (human lysozyme (human) [6]): 3 fold lower; Reactivity (%) (human lysozyme (human) [7]): 37.5%; Kd [8]: 124 nM |
| hLF^-3N (from UniProt P02788) (ligand) | 57 |  |  | Kd [1]: 57.2 nM; fold lower affinity than N-terminally intact hLF (human lysozyme (human) [6]): 17 fold lower; Kd [9]: 1700 nM; Reactivity (%) (human lysozyme (human) [7]): 5.1% |
| bovine lactoferrin (from UniProt P24627) (ligand) |  | 81 | 60 |  |
| non-modified recombinant human lactoferrin (from UniProt P02788) (ligand) | 81 |  |  |  |
| iron-saturated human lactoferrin (from UniProt P02788) (ligand) |  | 66 |  |  |
| natural human lactoferrin (from UniProt P02788) (ligand) | 69 | 74 | 60 | Kd [10]: 62.6 nM; Kd [11]: 71.1 nM |

Reference: patent US6333311
